For the test, the target named is cs130Fc (human) (UniProt P40189). Put plainly: SPR. A general note: Surface plasmon resonance follows binding to a sensor surface in real time, without labels.

The Kd is the constant that tells how readily two partners part at equilibrium. Higher therefore signals weaker binding.

hyper-IL-6 (HIL-6) registered a Kd of 0.059 nM.

The record behind these values is publication PMC8865451.
